Test results: patent US20040241820A1

Molecular target: Savinase® (subtilisin 309) (UniProt P29600)
Test: cell-based or functional assay

Sequence of UniProt P29600 (P29600 whole entry): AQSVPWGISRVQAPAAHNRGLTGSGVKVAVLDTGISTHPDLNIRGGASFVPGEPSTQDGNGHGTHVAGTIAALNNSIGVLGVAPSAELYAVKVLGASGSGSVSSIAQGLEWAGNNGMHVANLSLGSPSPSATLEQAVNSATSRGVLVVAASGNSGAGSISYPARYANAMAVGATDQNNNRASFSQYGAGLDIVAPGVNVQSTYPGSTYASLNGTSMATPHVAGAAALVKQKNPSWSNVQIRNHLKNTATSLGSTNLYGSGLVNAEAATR

RA (%) (Residual Activity in the Ovo-inhibition Assay; hydrolysis of Suc-Ala-Ala-Pro-Phe-pNA with versus without inhibitor): < 5%
Substance: trypsin inhibitor type IV-0 (Ovo-inhibitor), Sigma T-1886 (from UniProt P10184 69-517)
